Target: α-synuclein (human, UniProt P37840 1-140)
Experiment: quartz crystal microbalance (QCM); α-synuclein (1 μM) immobilised by amine coupling; 2.5, 5, 10, 15, 20 nM AD(Cys) added; citrate buffer (pH 4.0); kon, koff from linear regression of kobs against concentration
Details: both partners purified

Kd: 5.04 nM | koff: 0.00295 s⁻¹ | kon: 585000 M⁻¹ s⁻¹
B1: Hsp60 AD(Cys), isolated apical domain of human Hsp60 with cysteines at the N- and C-termini (domain or fragment)
chain: CGMKFDRGYISPYFINTSKGQKCEFQDAYVLLSEKKISSIQSIVPALEIANAHRKPLVIIAEDVDGEALSTLVLNRLKVGLQVVAVKAPGFGDNRKNQLKDMAIATGGAVFGEEGLTLNLEDVQPHDLGKVGEVIVTKDDAMLLKGKGDKAQIEKRIQEIIEQLDVTTSEYEKEKLNERLAKLSDC
modifications: disulfide bond between the two engineered cysteines at the N- and C-termini
notes: Cysteine introduced at the N-terminus; the primer ACCATGTGCGGCATGAAATTCGATCGCGGTT encodes Met-Cys-GMKFDRG; Apical domain of human Hsp60; Cysteine introduced at the C-terminus of the domain, before the His6 tag; the primer AGTGATTGCCACCACCACCACCACCACTGA encodes SD-Cys-HHHHHH-stop; A start Met precedes the N-terminal Cys in the construct; Monomer by gel filtration; also called …

Source: publication PMC6982183 (International Journal of Molecular Sciences, 2019)
